# Source: article PMC8715544 (JACS Au, 2021)
# B1: Escherichia coli methionine adenosyltransferase eMAT (enzyme)
# chain: MAKHLFTSESVSEGHPDKIADQISDAVLDAILEQDPKARVACETYVKTGMVLVGGEITTSAWVDIEEITRNTVREIGYVHSDMGFDANSCAVLSAIGKQSPDINQGVDRADPLEQGAGDQGLMFGYATNETDVLMPAPITYAHRLVQRQAEVRKNGTLPWLRPDAKSQVTFQYDDGKIVGIDAVVLSTQHSEEIDQKSLQEAVMEEIIKPILPAEWLTSATKFFINPTGRFVIGGPMGDCGLTGRKIIVDTYGGMARHGGGAFSGKDPSKVDRSAAYAARYVAKNIVAAGLADRCEIQVSYAIGVAEPTSIMVETFGTEKVPSEQLTLLVREFFDLRPYGLIQMLDLLHPIYKETAAYGHFGREHFPWEKTDKAQLLRDAAGLK
# Biological target: the molecule itself
# Test: SEC
protein,measurement,value
B1,stoichiometry N,4
